What was measured:
[1] = target: T1, human recombinant HER3 Extracellular Domain (HER3 ECD) (human, UniProt P21860 20-643); assay: SPR Biacore 4000 kinetic screening, antibody captured, analyte 150 nM, 25 C
T1 construct: 68 kDa; also called human-Her3-ECD
Procedure: (§1) In all assay the test antibodies were captured. The system was under the control of the software version V1.1. The instrument buffer was HBS-EP (10 mM HEPES (pH 7.4), 150 mM NaCl, 1 mM EDTA, 0.05% (w/v) P20). The system operated at 25° C. 30 μg/ml Rabbit polyclonal antibody (RAM IgG, (Rabbit anti Mouse IgG with Fc gamma specificity) GE Healthcare) in 10 mM sodium acetate buffer (pH 4.5) was immobilized using EDC/NHS chemistry according to the manufacturer's instructions on the spots 1, 2, 4 and 5 in the flow cells 1, 2, 3 and 4. The sensor was saturated using 1M ethanolamine. In each flow cell, referenced signals were calculated using spots 1-2 and spots 5-4, spot 3 served as a blanc control. […] Prior to their application the hybridoma culture supernatants were diluted 1:5 in instrument buffer. The diluted mixtures were injected at a flow rate of 30 μl/min for 2 min. The antibody capture level (CL) in response units was monitored. Immediately thereafter the respective antigen was injected at a flow rate of 30 μl/min for 3 min association time. Thereafter, the antibody-antigen complex dissociation signal was recorded for 5 min. The sensor was regenerated by injecting a 10 mM glycine-HCl solution (pH 1.7) for 2 min at a flow rate of 30 μl/min. The recorded signal shortly before the end of the injection of the antigen was denoted as binding late (BL) in response units. The recorded signal shortly before the end of the recording of the dissociation is denoted as stability late (SL) in response units. The dissociation rate constants were determined calculated The antibody-antigen complex stability in minutes was calculated with the following formula: […]. The Molar Ratio was calculated with the formula: MW (antibody)/MW (antigen) *BL (antigen)/CL (antibody).

[2] = target: T2, recombinant Thermus thermophilus SlyD FKBP-Her3 (TtSlyD-FKBP-Her3); assay: as above
T2 construct: expressed in E. coli, the N-terminal methionine can be present or not; also called thermo SlyD-Her3; T.T.SlyD-Her3
T2 chain: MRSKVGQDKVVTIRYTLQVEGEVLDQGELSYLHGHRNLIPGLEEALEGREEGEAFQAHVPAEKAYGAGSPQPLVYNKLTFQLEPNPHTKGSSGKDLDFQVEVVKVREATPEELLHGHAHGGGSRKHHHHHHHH
Procedure: as §1

[3] = target: T3, HER1, full length, on transfected HEK293 cells (human, UniProt P00533 25-1210); assay: IHC on HEK293 cells transiently transfected with full length HER1; NC = untransfected cells
T3 construct: HEK293 transiently transfected with a plasmid coding for full length HER1; also called EGFR
Procedure: (§2) All selected clones were tested for reactivity and specificity in IHC. […] After an additional fixation in formalin overnight the Agarose blocks were embedded in paraffin. Untransfected HEK293 cells were used as negative controls and treated accordingly to the transfected cells. After paraffin embedding 3 μm thin sections were prepared using a microtome. The sections were mounted on glass microscopy slides and dried for 2 h. All further steps of the immunohistochemical staining procedure were carried out using a Ventana Benchmark XT. The slides were dewaxed and antigen retrieval was performed by applying heat for 1 hour. For antigen retrieval the Ventana buffer CC1 was used. The antibodies were used at a concentration of 1 μg/ml. For the detection of bound antibody the Ventana UltraView detection kit was used.

[4] = target: HER2, full length, on cells (transfected HEK293, MCF7) (human, UniProt P04626 23-1255); assay: IHC on HEK293 cells transiently transfected with full length HER2; NC = untransfected cells
Procedure: as §2

[5] = target: HER4, full length, on transfected HEK293 cells (human, UniProt Q15303 26-1308); assay: IHC on HEK293 cells transiently transfected with full length HER4; NC = untransfected cells
Procedure: as §2

[6] = target: T1, human recombinant HER3 Extracellular …; assay: SPR Biacore T200, antibody captured, 25 C
Procedure: (§3) A Biacore T200 instrument (GE Healthcare) was mounted with a CM5 series sensor. The sensor was normalized in HBS-ET buffer (10 mM HEPES pH 7.4, 150 mM NaCl, 3 mM EDTA, 0.05% w/v Tween 20) according to the manufacturer's instructions. The sample buffer was the system buffer supplemented with 1 mg/ml CMD (Carboxymethyldextran, Sigma #86524). The system operated at 25° C. 6500 RU RAM-Fcγ (relative units of Fcγ-fragment RamlgG, GE Healthcare) were immobilized according to the manufacturer's instructions using amine coupling EDC/NHS chemistry on all four flow cells. The sensor was deactivated using 1M ethanolamine. […] Concentration dependent kinetics were measured. […] All analytes were injected for 5 min association time and 10 min dissociation time at 100 μl/min flow rate. The sensor capture system was regenerated by a 3 min injection at 10 μl/min of 10 mM glycine pH 1.7. Where possible kinetic data was evaluated using the Biacore T200 evaluation software.

[7] = target: T4, TtSlyDcas; assay: SPR Biacore T200, antibody captured, 25 C
T4 construct: negative control scaffold without the HER3 β-hairpin
T4 chain: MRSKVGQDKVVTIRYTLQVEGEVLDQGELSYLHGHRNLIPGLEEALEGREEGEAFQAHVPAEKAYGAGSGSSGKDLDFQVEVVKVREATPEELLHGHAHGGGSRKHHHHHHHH
Procedure: as §3

[8] = target: T5, HER3 ECD-HRG complex (Heregulin-activated Her-3 ECD) (human, UniProt P21860 20-643); assay: SPR Biacore T200, antibody captured, 25 C
T5 construct: receptor-ligand complex made by preincubating HER3 ECD with a five-fold molar excess of Heregulin; also called Heregulin/Her-3 ECD; Heregulin-complexed Her-3 ECD
Procedure: as §3

[9] = target: T5, HER3 ECD-HRG complex …; assay: SPR, Interaction Map (TraceDrawer), two-state-kinetic no. 2, 25 C

Sequence of HER4, full length, on transfected HEK293 cells (Q15303 26-1308): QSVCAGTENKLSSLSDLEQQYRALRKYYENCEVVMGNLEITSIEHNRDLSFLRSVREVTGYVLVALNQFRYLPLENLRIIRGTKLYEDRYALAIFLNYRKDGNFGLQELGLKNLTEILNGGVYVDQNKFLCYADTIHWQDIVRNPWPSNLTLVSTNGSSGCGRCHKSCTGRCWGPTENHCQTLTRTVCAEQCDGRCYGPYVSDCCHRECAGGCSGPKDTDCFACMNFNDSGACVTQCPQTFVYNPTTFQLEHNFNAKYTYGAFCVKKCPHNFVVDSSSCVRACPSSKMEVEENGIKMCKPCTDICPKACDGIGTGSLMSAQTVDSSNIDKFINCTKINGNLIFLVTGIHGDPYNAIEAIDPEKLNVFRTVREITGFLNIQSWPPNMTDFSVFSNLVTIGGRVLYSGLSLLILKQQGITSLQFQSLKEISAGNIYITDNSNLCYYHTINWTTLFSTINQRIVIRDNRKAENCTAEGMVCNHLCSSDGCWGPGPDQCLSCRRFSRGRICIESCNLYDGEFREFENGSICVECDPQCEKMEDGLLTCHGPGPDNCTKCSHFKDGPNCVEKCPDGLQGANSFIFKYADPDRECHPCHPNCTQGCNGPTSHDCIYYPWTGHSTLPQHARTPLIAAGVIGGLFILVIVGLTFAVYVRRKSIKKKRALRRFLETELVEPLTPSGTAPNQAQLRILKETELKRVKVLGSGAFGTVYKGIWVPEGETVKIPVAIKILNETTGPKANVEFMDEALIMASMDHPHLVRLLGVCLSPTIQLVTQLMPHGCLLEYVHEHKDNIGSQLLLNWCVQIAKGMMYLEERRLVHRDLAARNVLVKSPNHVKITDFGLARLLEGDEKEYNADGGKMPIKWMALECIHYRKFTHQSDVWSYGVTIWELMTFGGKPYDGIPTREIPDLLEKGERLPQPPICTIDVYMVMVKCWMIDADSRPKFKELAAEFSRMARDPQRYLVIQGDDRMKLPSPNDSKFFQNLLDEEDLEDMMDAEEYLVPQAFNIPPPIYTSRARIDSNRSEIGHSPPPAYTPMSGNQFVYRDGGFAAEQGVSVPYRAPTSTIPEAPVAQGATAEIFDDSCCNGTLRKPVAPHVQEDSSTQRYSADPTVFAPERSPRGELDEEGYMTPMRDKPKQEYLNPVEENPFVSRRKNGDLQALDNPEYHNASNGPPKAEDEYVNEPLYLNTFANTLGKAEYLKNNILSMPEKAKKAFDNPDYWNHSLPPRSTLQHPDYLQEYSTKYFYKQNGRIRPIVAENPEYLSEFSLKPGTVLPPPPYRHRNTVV

B1: anti-HER3 antibody M-17-02 (antibody, V domains shown)
VH: EVQLQQSGTVLARPGASVKMSCKASGYSFTSYWIHWVKQRPGQGLEWIGAIYPGNSDTTYNQKFKGKAKLTAVTSASTAYMELSSLTNEDSAVYYCARTGVWTSYYFDYWGQGTTLTVSS
VL: DIQMTQSPASLSASVGETVTITCRASENIYSNLAWYQQKQGKSPQLLVYAATNLADGVPSRFSGSGSGTQFSLRINSLQPEDFGSYYCQHFYGTPFTFGTGTKLEIK
notes: mouse hybridoma clone
BL (binding late) [1]: 10 RU | MR (Molar Ratio) [1]: 0.1 | SL (stability late) [1]: 10 RU | BL (binding late) [2]: 52 RU | MR (Molar Ratio) [2]: 1.7 | SL (stability late) [2]: 50 RU | koff [2]: 0.0002 s⁻¹ | t/2 diss [2]: 59 min | binding result [3]: no binding | binding result [4]: no binding | binding result [5]: no binding

B2: anti-HER3 antibody M-43-01 (antibody, V domains shown)
VH: EVQLQQSGTVLARPGASVKMSCKASDYTFSNYWVHWVKQRPGQGLEWIGAIYPGNGDSTYYQKFKGKATLTAVTSTSTAYMDLSSLTNGDSAVYFCTRSGVGYNYYFDYWGQGTTLTVSS
VL: DIQMTQSPASLSASVGETVTITCRASENIYSNLAWYQQKQGKSPQLLVYIATNLADGVPSRFSGSGSGTQFSLKINSLQPEDLGSYYCQHFYGTPFTFGTGTKLEIE
notes: mouse hybridoma clone
Kd [6]: 5.2 nM | MR (Molar Ratio) [6]: 0.1 | koff [6]: 0.00055 s⁻¹ | kon [6]: 110000 M⁻¹ s⁻¹ | MR (Molar Ratio) [7]: 0 | binding result [7]: no binding (tested: 90 nM) | MR (Molar Ratio) [8]: 0.3 | BL (binding late) [1]: 9 RU | MR (Molar Ratio) [1]: 0.1 | SL (stability late) [1]: 8 RU | koff [1]: 0.00066 s⁻¹ | t/2 diss [1]: 18 min | BL (binding late) [2]: 53 RU | MR (Molar Ratio) [2]: 1.7 | SL (stability late) [2]: 51 RU | koff [2]: 0.00016 s⁻¹ | t/2 diss [2]: 73 min | Kd [9]: 62 nM | Weight (contribution to the overall interaction) [9]: 13% | koff [9]: 0.000988 s⁻¹ | kon [9]: 15900 M⁻¹ s⁻¹ | binding result [3]: no binding | binding result [4]: no binding | binding result [5]: no binding

B3: anti-HER3 antibody M-08-11 (antibody, V domains shown)
VH: QAYLQQSGAELMRPGASVRMSCQASGYTFTSYTIHWLKQTPRQGLEWIGAIYPRNGDFSYNQKFKDKASLTVDTSSSTAYMHLSSLTSEDSAVYFCARTINYGDWFAYWGQGTLVTVSA
VL: DIQMIQSPASLFVSEGETVIITCRASENIYSNLAWYHQKKGKSPQVLVYAAIKLADGVPLRFSGSGSGTQFSLKINSLQSEDFGSYYCQHFWGPPYTFGSGTNLEIK
notes: mouse monoclonal antibody from hybridoma, tested as hybridoma supernatant or as antibody; also called M-011
Kd [6]: 3.5 nM | MR (Molar Ratio) [6]: 0.1 | koff [6]: 0.00037 s⁻¹ | kon [6]: 110000 M⁻¹ s⁻¹ | MR (Molar Ratio) [7]: 0 | binding result [7]: no binding (tested: 90 nM) | MR (Molar Ratio) [8]: 0.7 | BL (binding late) [1]: 61 RU | MR (Molar Ratio) [1]: 0.4 | SL (stability late) [1]: 62 RU | koff [1]: 4.11e-05 s⁻¹ | t/2 diss [1]: 281 min | BL (binding late) [2]: 46 RU | MR (Molar Ratio) [2]: 1.3 | SL (stability late) [2]: 45 RU | koff [2]: 0.000102 s⁻¹ | t/2 diss [2]: 114 min | Kd [9]: 23 nM | Weight (contribution to the overall interaction) [9]: 6% | koff [9]: 0.000449 s⁻¹ | kon [9]: 19500 M⁻¹ s⁻¹ | binding result [4]: no binding | binding result [5]: no binding

B4: anti-HER3 antibody M-46-01 (antibody, V domains shown)
VH: QIQLQQSGPQLVRPGASVKISCKASGYSFTSYWMHWVKQRPGRGLEWIGMIDPSDGVTRLNQKFKDKATLTVDNSSSTAYMQLSSPTSEDSAVHYCARVDVLYWYFDVWGAGTTVTVSS
VL: DIVLTQSPASLAVSLGQRATISCRASKSISISGYSYMHWYQQKAGQPPKLLIYLTSNLESGVPARFSGSGSGTDFTLNIHPVEEEDAATYYCHHSRELPFTFGSGTKLEIK
notes: mouse hybridoma clone
Kd [6]: 3.8 nM | MR (Molar Ratio) [6]: 0.2 | koff [6]: 0.0004 s⁻¹ | kon [6]: 100000 M⁻¹ s⁻¹ | MR (Molar Ratio) [7]: 0 | binding result [7]: no binding (tested: 90 nM) | MR (Molar Ratio) [8]: 0.9 | BL (binding late) [1]: 21 RU | MR (Molar Ratio) [1]: 0.2 | SL (stability late) [1]: 17 RU | koff [1]: 0.00041 s⁻¹ | t/2 diss [1]: 28 min | BL (binding late) [2]: 80 RU | MR (Molar Ratio) [2]: 1.8 | SL (stability late) [2]: 71 RU | koff [2]: 0.00028 s⁻¹ | t/2 diss [2]: 41 min | Kd [9]: 15.7 nM | Weight (contribution to the overall interaction) [9]: 7% | koff [9]: 0.000774 s⁻¹ | kon [9]: 49400 M⁻¹ s⁻¹ | binding result [3]: no binding | binding result [4]: no binding | binding result [5]: no binding

From patent US20180094062A1 (Hoffmann-La Roche, published 2018)
